# According to patent publication US20250360236A1, “PROSTATE SPECIFIC MEMBRANE ANTIGEN (PSMA) LIGANDS” (Deutsches Krebsforschungszentrum Stiftung des öffentlichen …, priority 2022, published 2025):
# Read-outs that look alike come from different tables or passages of the source. Where a SMILES comes first, the peptide text is derived from it. [ ]: non-standard residue; d: D form. The star is where a group is joined. ξ: configuration not given here. X1 = CN1/C(=C/C=C/C=C/C2=[N+](CCCCCC(=O)*)c3ccc(S(=O)(=O)O)cc3C2(C)C)C(C)(C)c2cc(S(=O)(=O)[O-])ccc21; X3 = CN1/C(=C/C=C/C=C/C2=[N+](CCCCCC(=O)*)c3ccc(S(=O)(=O)[O-])cc3C2(C)C)C(C)(C)c2cc(S(=O)(=O)O)ccc21; DOTA = O=C(O)CN1CCN(CC(=O)O)CCN(CC(=O)*)CCN(CC(=O)O)CC1; EuK = O=C(O)CC[C@H](NC(=O)N[C@@H](CCCCN*)C(=O)O)C(=O)O; X2 = O=C(O)CC[C@@H](NC(=O)N[C@H](CCCCN*)C(=O)O)C(=O)O; 2Nal = N[C@@H](Cc1ccc2ccccc2c1)C(=O)O; d2Nal = N[C@H](Cc1ccc2ccccc2c1)C(=O)O; Trx = NC[C@H]1CC[C@H](C(=O)O)CC1; ξK = NCCCCC(N)C(=O)O; βAla = NCCC(=O)O; Sar = CNCC(=O)O
# Assays:
# LNCaP xenograft tumors = conditions: cited from earlier work
# in vivo = test: in vivo; design: species or system BALB/c nu/nu mice; conditions: male, BALB/c nu/nu, mouse, iv, 0.06 nmol, total radioactivity; for tissue to tissue ratio at 1 h: LNCaP Tumor-to-Organ ratio; for tissue uptake at 1 h: Organ distribution
# PSMA = biological target: T1, PSMA (Homo sapiens, UniProt Q04609); conditions: cited from earlier work
# T1 construct: determined in vitro using PSMA^+-cells (LNCaP); host or cells: LNCaP cells
# PSMA+-cells (LNCaP) = test: Cell surface binding and internalization experiments; assay type: cell-based; conditions: 68Ga-labeled compounds, 30 nM, 45 min 37 °C, specific uptake by blockage with 500 μM 2-PMPA, mean ± SD n=3
# Description: For internalization experiments, 10^5 cells per well were seeded in poly-L-lysine coated 24-well cell culture plates 24 h before incubation. After washing, the cells were incubated with 30 nM of the radiolabeled compound for 45 min at 37° C. Cellular uptake was terminated by washing 3 times with 1 mL of ice-cold PBS. To remove surface-bound radioactivity, cells were incubated twice with 0.5 mL glycine-HCl in PBS (50 mM, pH=2.8) for 5 min. The cells were washed with 1 mL of ice-cold PBS and lysed using 0.3 N NaOH (0.5 mL). The surface-bound and the internalized fractions were measured in a gamma counter. The cell uptake was calculated as percent of the initially added radioactivity bound to 10^5 cells [% ID/10^5 cells].
# T1 sequence (Q04609 whole entry): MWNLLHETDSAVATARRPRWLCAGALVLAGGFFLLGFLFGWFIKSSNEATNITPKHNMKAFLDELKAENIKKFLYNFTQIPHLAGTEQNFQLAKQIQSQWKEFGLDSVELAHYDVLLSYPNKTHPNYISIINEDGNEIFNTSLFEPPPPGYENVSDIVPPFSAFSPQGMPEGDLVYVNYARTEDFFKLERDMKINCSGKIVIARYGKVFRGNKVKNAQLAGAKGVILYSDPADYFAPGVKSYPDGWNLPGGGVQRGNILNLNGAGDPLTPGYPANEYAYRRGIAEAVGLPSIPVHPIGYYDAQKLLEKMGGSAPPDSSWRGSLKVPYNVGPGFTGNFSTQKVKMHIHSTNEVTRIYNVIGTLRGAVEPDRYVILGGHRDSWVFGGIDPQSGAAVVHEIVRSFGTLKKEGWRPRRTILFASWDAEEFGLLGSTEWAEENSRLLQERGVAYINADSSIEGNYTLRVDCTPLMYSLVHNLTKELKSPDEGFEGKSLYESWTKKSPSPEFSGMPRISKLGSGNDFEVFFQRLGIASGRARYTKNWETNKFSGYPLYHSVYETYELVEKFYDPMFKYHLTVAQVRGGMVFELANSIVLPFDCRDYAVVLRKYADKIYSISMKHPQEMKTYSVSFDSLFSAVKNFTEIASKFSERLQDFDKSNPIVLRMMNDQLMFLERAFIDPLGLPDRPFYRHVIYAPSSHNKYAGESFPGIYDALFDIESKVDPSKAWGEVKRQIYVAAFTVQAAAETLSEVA
compound,measurement,setting,value
O=C([O-])CN1CCN(CC(=O)[O-])CCN(CC(=O)NCC2CCC(C(=O)N[C@@H](Cc3ccc4ccccc4c3)C(=O)NCCCC[C@H](NC(=O)N[C@@H](CCC(=O)O)C(=O)O)C(=O)O)CC2)CCN(CC(=O)[O-])CC1.[177Lu+3] (stereo partly shown) [^177Lu-PSMA-617],"tumor uptake in LNCaP xenograft tumors, reference compounds","LNCaP xenograft tumors; reference values (4), 1 h p.i. printed for 177Lu-PSMA-617",8.47±4.09 % ID/g
same,"kidney uptake, reference compounds",LNCaP xenograft tumors; reference values (4),137.2±77.8 % ID/g
"CN(CC(=O)NC[C@H]1CC[C@H](C(=O)N[C@H](Cc2ccc3ccccc3c2)C(=O)NCCCC[C@@H](NC(=O)N[C@H](CCC(=O)O)C(=O)O)C(=O)O)CC1)C(=O)CN(C)C(=O)CN(C)C(=O)CN(C)C(=O)CN(C)C(=O)C(CCCCNC(=O)CN1CCN(CC(=O)O)CCN(CC(=O)O)CCN(CC(=O)O)CC1)NC(=O)CN(C)C(=O)CN(C)C(=O)CN(C)C(=O)CN(C)C(=O)CN(C)C(=O)CCNC(=O)CCCCC[N+]1=C(/C=C/C=C/C=C2/N(C)c3ccc(S(=O)(=O)[O-])cc3C2(C)C)C(C)(C)c2cc(S(=O)(=O)O)ccc21 (stereo partly shown) [^177Lu-BP-1, metal not drawn] ({X1-βAla}-[Sar][Sar][Sar][Sar][Sar][ξK](DOTA)[Sar][Sar][Sar][Sar][Sar][Trx][d2Nal]-X2)",tissue to tissue ratio at 1 h,in vivo; Blood,40 ± 4.75
same,tissue to tissue ratio at 1 h,in vivo; Brain,423 ± 81.3
same,tissue to tissue ratio at 1 h,in vivo; Heart,64.5 ± 12.8
same,tissue to tissue ratio at 1 h,in vivo; Intestine,76.3 ± 13.1
same,tissue to tissue ratio at 1 h,in vivo; Kidney,0.34 ± 0.04
same,tissue to tissue ratio at 1 h,in vivo; Liver,27.8 ± 5.94
same,tissue to tissue ratio at 1 h,in vivo; Lung,18.2 ± 4.54
same,tissue to tissue ratio at 1 h,in vivo; Muscle,165 ± 31.4
same,tissue to tissue ratio at 1 h,in vivo; Spleen,8.05 ± 1.05
same,tissue uptake at 1 h,in vivo; Blood,0.16 ± 0.02 %ID/g
same,tissue uptake at 1 h,in vivo; Brain,0.02 ± 0.001 %ID/g
same,tissue uptake at 1 h,in vivo; Heart,0.1 ± 0.004 %ID/g
same,tissue uptake at 1 h,in vivo; Intestine,0.08 ± 0.01 %ID/g
same,tissue uptake at 1 h,in vivo; Kidney,18.9 ± 4.56 %ID/g
same,tissue uptake at 1 h,in vivo; Liver,0.24 ± 0.03 %ID/g
same,tissue uptake at 1 h,in vivo; Lung,0.38 ± 0.03 %ID/g
same,tissue uptake at 1 h,in vivo; Muscle,0.04 ± 0.004 %ID/g
same,tissue uptake at 1 h,in vivo; Spleen,0.78 ± 0.03 %ID/g
same,tissue uptake at 1 h,in vivo; Tumor LNCaP,5.85 ± 1.16 %ID/g
"CN(CC(=O)NC[C@H]1CC[C@H](C(=O)N[C@H](Cc2ccc3ccccc3c2)C(=O)NCCCC[C@@H](NC(=O)N[C@H](CCC(=O)O)C(=O)O)C(=O)O)CC1)C(=O)CN(C)C(=O)CN(C)C(=O)CN(C)C(=O)CN(C)C(=O)C(CCCCNC(=O)CCCCC[N+]1=C(/C=C/C=C/C=C2/N(C)c3ccc(S(=O)(=O)[O-])cc3C2(C)C)C(C)(C)c2cc(S(=O)(=O)O)ccc21)NC(=O)CN(C)C(=O)CN(C)C(=O)CN(C)C(=O)CN(C)C(=O)CN(C)C(=O)CCNC(=O)CN1CCN(CC(=O)O)CCN(CC(=O)O)CCN(CC(=O)O)CC1 (stereo partly shown) [^177Lu-BP-4, metal not drawn] ({DOTA-βAla}-[Sar][Sar][Sar][Sar][Sar][ξK](X1)[Sar][Sar][Sar][Sar][Sar][Trx][d2Nal]-X2)",tissue to tissue ratio at 1 h,in vivo; Blood,25.9 ± 9.14
same,tissue to tissue ratio at 1 h,in vivo; Brain,275 ± 63.6
same,tissue to tissue ratio at 1 h,in vivo; Heart,48.6 ± 15.7
same,tissue to tissue ratio at 1 h,in vivo; Intestine,49.3 ± 18.2
same,tissue to tissue ratio at 1 h,in vivo; Kidney,0.17 ± 0.08
same,tissue to tissue ratio at 1 h,in vivo; Liver,36.1 ± 6.7
same,tissue to tissue ratio at 1 h,in vivo; Lung,12.1 ± 2.03
same,tissue to tissue ratio at 1 h,in vivo; Muscle,110 ± 51.7
same,tissue to tissue ratio at 1 h,in vivo; Spleen,7.83 ± 0.85
same,tissue uptake at 1 h,in vivo; Blood,0.23 ± 0.08 %ID/g
same,tissue uptake at 1 h,in vivo; Brain,0.02 ± 0.002 %ID/g
same,tissue uptake at 1 h,in vivo; Heart,0.12 ± 0.02 %ID/g
same,tissue uptake at 1 h,in vivo; Intestine,0.12 ± 0.04 %ID/g
same,tissue uptake at 1 h,in vivo; Kidney,37.5 ± 12.1 %ID/g
same,tissue uptake at 1 h,in vivo; Liver,0.14 ± 0.01 %ID/g
same,tissue uptake at 1 h,in vivo; Lung,0.4 ± 0.04 %ID/g
same,tissue uptake at 1 h,in vivo; Muscle,0.06 ± 0.002 %ID/g
same,tissue uptake at 1 h,in vivo; Spleen,0.59 ± 0.12 %ID/g
same,tissue uptake at 1 h,in vivo; Tumor LNCaP,4.3 ± 0.27 %ID/g
[Glu-urea-Lys(Ahx)]2-HBED-CC [^68Ga-PSMA-10],Kd,"PSMA; radioligand 68Ga-PSMA-10, reference (1)",3.8 nM
^68Ga-Glu-urea-Lys-2-Nal-Chx-Lys(IRDye800CW)-DOTA,"kidney uptake, reference compounds","LNCaP xenograft tumors; mouse, in vivo",65.64±6.60 % ID/g
"CN(CC(=O)NC[C@H]1CC[C@H](C(=O)N[C@@H](Cc2ccc3ccccc3c2)C(=O)NCCCC[C@H](NC(=O)N[C@@H](CCC(=O)O)C(=O)O)C(=O)O)CC1)C(=O)CN(C)C(=O)CN(C)C(=O)CN(C)C(=O)CN(C)C(=O)[C@H](CCCCNC(=O)CN1CCN(CC(=O)O)CCN(CC(=O)O)CCN(CC(=O)O)CC1)NC(=O)CN(C)C(=O)CN(C)C(=O)CN(C)C(=O)CN(C)C(=O)CN(C)C(=O)CCNC(=O)CCCCC[N+]1=C(/C=C/C=C/C=C2/N(C)c3ccc(S(=O)(=O)O)cc3C2(C)C)C(C)(C)c2cc(S(=O)(=O)[O-])ccc21 [BP-1, Glu-urea-Lys-2-Nal-Chx-Sar5-Lys(DOTA)-Sar5-bAla-sulfoCy5] ({X3-βAla}-[Sar][Sar][Sar][Sar][Sar]K(DOTA)[Sar][Sar][Sar][Sar][Sar][Trx][2Nal]-EuK)",Specifically cell surface bound,PSMA+-cells (LNCaP),1.3 ± 0.6 % AR/10^5 cells
same,Specifically internalized,PSMA+-cells (LNCaP),1.1 ± 1.0 % AR/10^5 cells
"CN(CC(=O)NC[C@H]1CC[C@H](C(=O)N[C@@H](Cc2ccc3ccccc3c2)C(=O)NCCCC[C@H](NC(=O)N[C@@H](CCC(=O)O)C(=O)O)C(=O)O)CC1)C(=O)CN(C)C(=O)CN(C)C(=O)CN(C)C(=O)CN(C)C(=O)[C@H](CCCCNC(=O)CCCCC[N+]1=C(/C=C/C=C/C=C2/N(C)c3ccc(S(=O)(=O)O)cc3C2(C)C)C(C)(C)c2cc(S(=O)(=O)[O-])ccc21)NC(=O)CN(C)C(=O)CN(C)C(=O)CN(C)C(=O)CN(C)C(=O)CN(C)C(=O)CCNC(=O)CN1CCN(CC(=O)O)CCN(CC(=O)O)CCN(CC(=O)O)CC1 [BP-4, Glu-urea-Lys-2-Nal-Chx-Sar5-Lys(sulfoCy5)-Sar5-bAla-DOTA] ({DOTA-βAla}-[Sar][Sar][Sar][Sar][Sar]K(X3)[Sar][Sar][Sar][Sar][Sar][Trx][2Nal]-EuK)",Specifically cell surface bound,PSMA+-cells (LNCaP),0.8 ± 1.0 % AR/10^5 cells
same,Specifically internalized,PSMA+-cells (LNCaP),0.4 ± 0.7 % AR/10^5 cells
"O=C(O)CC[C@H](NC(=O)N[C@@H](CCCCNC(=O)[C@H](Cc1ccc2ccccc2c1)NC(=O)[C@H]1CC[C@H](CNC(=O)CN2CCN(CC(=O)O)CCN(CC(=O)O)CCN(CC(=O)O)CC2)CC1)C(=O)O)C(=O)O [PSMA-617, reference compound]",Specifically cell surface bound,PSMA+-cells (LNCaP),0.3 ± 0.1 % AR/10^5 cells
same,Specifically internalized,PSMA+-cells (LNCaP),1.2 ± 0.6 % AR/10^5 cells
same,Ki,"PSMA; ki-value for PSMA-617 from Benesova et al. (3), read-out: ki free ligands",2.3 ± 2.9 nM
